# Assay results reported in EP0568622B1.
# Target: rat/human corticotropin releasing factor (r/h CRF), 41-residue peptide (rat/human (same molecule))
# Experiment: method not stated
substance,measurement,value
"recombinant rat CRF-binding protein (rCRF-BP), secreted by transfected COS7 cells",Kd,0.1 nM
